According to patent US7572600B2, “Enzymatic activities in chemokine-mediated inflammation” (Chemocentryx, Inc., priority 2004, dated 2009):

Assays:
human neutrophils = test: Chemotaxis of human neutrophils; assay type: cell-based
Description: (§1) Chemotaxis assay. L1.2-CCR1 transfectants, THP-1 cells, human monocytes and human neutrophils were collected by centrifugation and resuspended in HBSS containing 0.1% BSA. Chemotaxis assays were performed in 96-well ChemoTx® microplates (Neuroprobe, Rockville, Md.) as follows. Chemokines were added to the lower wells (final volume 29 μL), and 20 μL of cell suspension (5×10^6 cells/mL) was added to the polycarbonate filter (3 μm pore size for neutrophils, 5 μm for other 3 cell types). After incubation at 37° C. in the presence of 5% CO2 for 1 hr (neutrophils), 90 min (monocytes) or 2 h (THP-1 and L1.2-CCR1), cells were removed from the upper surface of the filter by scraping. Cells that migrated into the lower chamber were quantified by using the CyQuant cell proliferation assay kit (Molecular Probes, Eugene, Oreg.) and analyzed with a Tecan (Durham, N.C.) fluorimeter (excitation at 480 nm, emission at 530 nm). Data were analyzed and plotted in arbitrary units of fluorescence using Prism (GraphPad Software, San Diego, Calif.).
(§2) Chemotaxis assays. L1.2-CCR1 and L1.2-FPRL1 transfectants, monocytes and neutrophils were collected by centrifugation and resuspended in HBSS with 0.1% BSA. The assays were performed in 96-well ChemoTx® microplates (Neuroprobe, Rockville, Md.). Chemokines were diluted in HBSS with 0.1% BSA and added to the lower wells (final volume 29 μL), then 20 μL of cell suspension (5×10^6 cells/mL for monocytes; 2.5×10^6 cells/mL for neutrophils) were added to the polycarbonate filters (5 μm pore size for monocytes and FPRL1 transfectants; 3 μm pore size for neutrophils). After incubation for 90 min (37° C., 100% humidity, 5% CO2), the filters were removed and the cells that migrated into the lower chamber were quantified by using the CyQuant cell proliferation assay kit (Molecular Probes, Oreg.).

human monocytes [1] = test: Calcium mobilization in freshly isolated human monocytes; assay type: cell-based
Description: (§3) Calcium Mobilization Assay. Cells were loaded for 1 hour with 2 μM indo-1/AM dye (Molecular Probes, Eugene, Oreg.) in culture medium, then washed with 10 ml PBS and resuspended at 10^6/ml in HBSS containing 1% FBS. Cytosolic calcium responses were determined using a Photon Technology International (Lawrenceville, N.J.) fluorimeter, with excitation at 350 nm and dual emission at 400 and 490 nm. Alternatively, cells were loaded with 5 μg/ml Fluo-4 AM dye (Molecular Probes, Eugene, Oreg.), then washed and analyzed on a Fluorometric Imaging Plate Reader 384 (FLIPR^384 Molecular Devices, Sunnyvale, Calif.), with 505 nm excitation and 530 nm emission.
(§4) Receptor signaling assay. For individual measurements, cells were loaded for 45 min at room temperature with 2 μM indo-1/AM (Invitrogen, Carlsbad Calif.) in culture medium, then washed with 10 ml PBS and resuspended at 10^6 cells/ml in HBSS containing 0.1% BSA. Cytosolic calcium levels were determined using a Photon Technology International fluorimeter (excitation at 350 nm, ratio of dual emission at 400 and 490 nm). For measuring calcium dose responses, cells were analyzed with a Fluorometric Imaging Plate Reader 384 (FLIPR^384) (Molecular Devices, Sunnyvale, Calif.). Cells were loaded for 1 hr at 37° C. with 5 μM fluo-4 in HBSS with 0.1% BSA, then washed, transferred to black-wall 96-well plates, and subsequently excited at 505 nm with emission recorded at 530 nm with a standard protocol provided by the manufacture. Cells were stimulated with agonists 20 s after the monitoring of fluorescence began. Data were analyzed and plotted in arbitrary units of fluorescence using Prism. To ensure that responses were specific to FPRL1, we utilized a selective small-molecule antagonist of human FPRL1, generated by ChemoCentryx, which was optimized from a high throughput compound library screening approach.

CCR1 [2] = biological target: T1, CCR1 (Homo sapiens, UniProt P32246); test: Calcium mobilization in murine L1.2 cells expressing human CCR1; assay type: cell-based; set-up: expressed in transfected cells; host or cells: murine L1.2 cells (G-418 selected transfectant); settings: for calcium mobilization: L1.2-CCR1 cells
T1 sequence (P32246 1-355): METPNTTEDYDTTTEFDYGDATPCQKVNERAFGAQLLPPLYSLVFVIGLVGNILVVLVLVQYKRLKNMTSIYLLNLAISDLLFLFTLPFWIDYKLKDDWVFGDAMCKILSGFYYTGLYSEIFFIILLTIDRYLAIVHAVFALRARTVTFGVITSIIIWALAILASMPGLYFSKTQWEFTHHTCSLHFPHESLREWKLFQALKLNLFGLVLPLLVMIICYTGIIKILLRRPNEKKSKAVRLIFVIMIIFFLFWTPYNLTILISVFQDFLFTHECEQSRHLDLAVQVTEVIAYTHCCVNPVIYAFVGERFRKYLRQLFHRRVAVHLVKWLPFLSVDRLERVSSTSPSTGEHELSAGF
Description: as §3, §4

CCR1 [3] = biological target: T1, CCR1; test: Competition binding with 125I-MIP-1α on human monocytes; set-up: endogenous in cells; host or cells: human CD14+ monocytes from buffy coats
Description: Binding assay. Competition binding studies were conducted using monocytes, L1.2-CCR1 or L1.2-FPRL1 cells. Cells were incubated for 3 hr at 4° C. with ^125I-MIP-1α (final concentration ˜0.05 nM) or ^125I-WKYMVm (final concentration ˜0.01 nM) in buffer (25 mM HEPES, 140 mM NaCl, 1 mM CaCl2, 5 mM MgCl2 and 0.2% BSA, adjusted to pH 7.1) in the presence of increasing amounts of unlabeled chemokine. Reactions were aspirated onto PEI-treated GF/B glass filters using a cell harvester (Packard). Filters were washed twice (25 mM HEPES, 500 mM NaCl, 1 mM CaCl2, 5 mM MgCl2, adjusted to pH 7.1). Scintillant (MicroScint-10; 35 μl) was added to the filters and counted in a Packard Topcount scintillation counter. Data were analyzed and plotted using Prism (GraphPad Software, San Diego, Calif.).

human monocytes [4] = test: Chemotaxis of human monocytes; assay type: cell-based
Description: as §1, §2

CCR9 = biological target: T2, CCR9 (Homo sapiens, UniProt P51686); test: Calcium mobilization in Molt4 cells; assay type: cell-based; settings: digestions at 1 nM, all proteases and fluids tested
T2 construct: endogenous in cells; host or cells: Molt4 cells (per the assay name)
T2 sequence (P51686 1-369): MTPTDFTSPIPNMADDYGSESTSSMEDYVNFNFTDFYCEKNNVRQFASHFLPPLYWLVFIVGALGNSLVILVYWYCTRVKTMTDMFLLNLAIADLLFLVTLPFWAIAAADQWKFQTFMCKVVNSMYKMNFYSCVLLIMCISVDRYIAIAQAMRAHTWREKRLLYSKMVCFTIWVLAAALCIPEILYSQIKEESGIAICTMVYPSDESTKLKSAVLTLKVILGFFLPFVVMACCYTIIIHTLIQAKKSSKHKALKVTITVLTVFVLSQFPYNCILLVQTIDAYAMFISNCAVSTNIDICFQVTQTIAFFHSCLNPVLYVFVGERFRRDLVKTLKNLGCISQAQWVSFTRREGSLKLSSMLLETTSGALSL
Description: as §3

L1.2-CCR1 cells = biological target: T3, L1.2-CCR1 cells (Homo sapiens, UniProt P32246); test: L1.2-CCR1 chemotaxis assay; assay type: cell-based; settings: three-point titrations 0.5, 5, 50 nM, 2 hr
T3 construct: expressed in transfected cells; host or cells: murine L1.2 cells (G-418 selected transfectant)
T3 sequence (P32246 1-355): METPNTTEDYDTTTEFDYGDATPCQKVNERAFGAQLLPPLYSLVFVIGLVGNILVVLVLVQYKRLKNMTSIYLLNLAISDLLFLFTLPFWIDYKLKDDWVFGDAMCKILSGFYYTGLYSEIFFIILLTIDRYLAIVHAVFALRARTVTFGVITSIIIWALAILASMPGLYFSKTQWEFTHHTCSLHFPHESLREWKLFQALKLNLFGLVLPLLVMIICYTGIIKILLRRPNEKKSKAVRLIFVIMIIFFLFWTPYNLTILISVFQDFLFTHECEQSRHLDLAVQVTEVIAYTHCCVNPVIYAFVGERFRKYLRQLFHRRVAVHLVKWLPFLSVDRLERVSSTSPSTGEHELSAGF
Description: as §1

[5] = tested on: monocyte-derived dendritic cells; test: Calcium mobilization in monocyte-derived dendritic cells; assay type: cell-based, human; settings: immature DC; after digestion with chymase, cathepsin G, elastase, synovial fluid or PMN sup #1
Description: Human monocytes were obtained from buffy coats purchased from the Stanford Blood Bank (Palo Alto, Calif.) by sedimentation on Ficoll-Paque (Amersham, Piscataway, N.J.) and selection with anti-CD14 magnetic beads (Miltenyi, Auburn, Calif.) according to the manufacturers' instructions. For generation of dendritic cells, monocytes were cultured for 6 days in RPMI-1640 medium containing 10% FBS (HyClone, Logan, Utah). On days 0, 2 and 4, GM-CSF and IL-4 (both purchased from R&D Systems, Minneapolis, Minn.) were added to the cultures at 1000 WHO unit/ml each. The cells were confirmed to be CD14^−CD1a^+ immature DC by FACS staining on day 6.
as §3
Immature and mature DC preparation. Immature DCs were derived by culturing CD14+ monocytes in T-175 cultured flasks at a density of 10^6 cells/ml in RPMI supplemented with 10% FBS. Recombinant human cytokines GM-CSF and IL-4 (final concentration 1000 and 500 U/ml, respectively) were added on day 0, 2, 4 and 6. Cells were harvested on day 6 as immature DCs and characterized for surface marker expression by flow cytometry. DC maturation was carried out by culturing day-6 immature DCs in RPMI-10% FBS supplemented with GM-CSF, IL-4 and 50 μg/ml polyIC (Sigma, St. Louis Mo.). After two more days of culture, cells were harvested as mature DCs and characterized by surface marker expression by flow cytometry.
as §4

[6] = undigested chemokine or peptide, 100 nM (CCL23β up to 250 nM)
[7] = 10 nM input chemokine, after digestion with proteases and fluids
[8] = 10 nM, undigested or recombinant chemokine

B1: CCL23Δ24/MPIF-1: Recombinant CCL23/CKβ8 lacking the N-terminal 24 residues (46-120) (protein)
chain: RFHATSADCCISYTPRSIPCSLLESYFETNSECSKPGVIFLTKKGRRFCANPSDKQVQVCMRMLKLDTRIKTRKN
How did the chemotaxis (human neutrophils) turn out when B1 was run?
The chemotaxis was “unable to induce migration”.

What about the calcium mobilization (human monocytes [1]; [6]) of the same molecule?
The calcium mobilization was “strong calcium responses”.

What about the “calcium mobilization in the CCR1 transfectant” value (CCR1 [2]; L1.2 cells stably expressing human CCR1) of the same molecule?
The value was “effective at inducing calcium mobilization”.

What about the “inhibition of 125I-MIP-1α binding” value (CCR1 [3]) of the same molecule?
Its value is “most potent competitor”.

What about the chemotaxis (human monocytes [4]; undigested) of the same molecule?
Its chemotaxis is “moderately strong chemoattraction”.

B2: CCL25/TECK: non-C6* β-chemokine signaling through CCR9 (protein, UniProt O15444 24-150, looked up)
C-C motif chemokine 25: QGVFEDCCLAYHYPIGWAVLRRAWTYRIQEVSGSCNLPAAIFYLPKRHRKVCGNPKSREVQRAMKLLDARNKVFAKLHHNTQTFQAGPHAVKKLSSGNSKLSSSKFSNPISSSKRNVSLLISANSGL
For B2, which “signaling through CCR9 after digestion” value (CCR9) is on record?
Its value is “inactivated”.

B3: CCL9/MIP-1γ: recombinant murine C6* chemokine (protein, listed as Homo sapiens)
chain: QITHATETKEVQSSLKAQQGLEIEMFHMGFQDSSDCCLSYNSRIQCSRFIGYFPTSGGCTRPGIIFISKRGFQVCANPSDRRVQRCIERLEQNSQPRTYKQ
B3 was tested. Which calcium mobilization (CCR1 [2]; [7]) did it give?
Its calcium mobilization is “uniformly active”.

And the calcium mobilization (CCR1 [2]; [8])?
Its calcium mobilization is “either not active or weakly active”.

And the “chemotaxis potency of truncated forms versus full-length chemokine” value (L1.2-CCR1 cells)?
Its value is “greater potency”.

B4: CCL6/C10: recombinant murine C6* chemokine (protein, listed as Homo sapiens)
chain: GLIQEMEKEDRRYNPPIIHQGFQDTSSDCCFSYATQIPCKRFIYYFPTSGGCIKPGIIFISRRGTQVCADPSDRRVQRCLSTLKQGPRSGNKVIA
For B4, which “calcium mobilization versus full-length chemokine” value [5] is on record?
The value was “more efficacious”.

And the calcium mobilization (human monocytes [1]; 100 nM after digestion with chymase, cathepsin G, elastase or synovial fluid)?
Its calcium mobilization is “mobilized calcium”.

What about the calcium mobilization (human monocytes [1]; [6]) of the same molecule?
Its calcium mobilization is “unable to induce calcium mobilization”.

What about the calcium mobilization (CCR1 [2]; [7]) of the same molecule?
The calcium mobilization was “uniformly active”.

And the calcium mobilization (CCR1 [2]; [8])?
Its calcium mobilization is “either not active or weakly active”.

What about the “chemotaxis potency of truncated forms versus full-length chemokine” value (L1.2-CCR1 cells) of the same molecule?
Its value is “greater potency”.

And the chemotaxis (human monocytes [4]; 200 nM after digestion with chymase, cathepsin G or elastase)?
Its chemotaxis is “stimulated chemotaxis”.

What about the “concentration with the most migration” value (human monocytes [4]; after digestion with synovial fluid #1) of the same molecule?
The value was 2 nM.
